According to patent US6051217, “Therapeutic uses of interleukin-3 (IL-3) multiple mutation polypeptides” (G. D. Searle & Co., dated 2000):
Where a chain is given by its changes, count along the chain named. One block for each binder: values may come before it.

Assays:
hIL-3 receptor [1] = target: T1, hIL-3 receptor (human, UniProt P26951); test: cell-based or functional assay
T1 sequence: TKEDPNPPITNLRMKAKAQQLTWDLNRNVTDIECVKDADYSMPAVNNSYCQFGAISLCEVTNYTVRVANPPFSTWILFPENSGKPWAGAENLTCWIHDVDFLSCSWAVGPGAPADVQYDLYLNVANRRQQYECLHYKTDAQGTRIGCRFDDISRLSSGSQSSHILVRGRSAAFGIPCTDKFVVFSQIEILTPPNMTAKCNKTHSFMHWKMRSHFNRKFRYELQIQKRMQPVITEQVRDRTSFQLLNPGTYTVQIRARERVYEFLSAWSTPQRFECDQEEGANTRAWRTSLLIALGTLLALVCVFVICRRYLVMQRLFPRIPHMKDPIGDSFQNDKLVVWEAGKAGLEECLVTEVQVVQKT

hIL-3 receptor [2] = target: T1, hIL-3 receptor; test: cell-based or functional assay; remark: listed apart in the source

Relative Biological Activity (AML 193 proliferation) (hIL-3 receptor [1]): 21.5 EC50 (1-133)hIL-3 / EC50 mutant
B1: pMON13446 polypeptide (ligand)
chain: MAYPETDYKDDDDKNCSIMIDEIIHHLKRPPAPLLDPNNLNAEDVDILMERNLRLPNLESFVRAVKNLENASGIEAILRNLQPCLPSATAAPSRHPIIIKAGDWQEFREKLTFYLVTLEQAQEQQ

Relative Biological Activity (AML 193 proliferation) (hIL-3 receptor [1]): 0.003 EC50 (1-133)hIL-3 / EC50 mutant
B4: pMON13459 polypeptide (ligand)
chain: MANCSIMIDELIHHLKIPPNPSLDSANLNSEDVSILMERNLRTPNLLAFVRAVKHLENASGIEPILSNLQPCVPYWTAPPSRTPITIKAGDWQEFRLKLQFYLSTLEQAQEQQ

Relative Biological Activity (AML 193 proliferation) (hIL-3 receptor [1]): 9 EC50 (1-133)hIL-3 / EC50 mutant
B5: pMON13440 polypeptide (ligand)
chain: B4 chain with L11A, S67R, V73L, Y75S, W76A, P79A, T86I, L97E, Q100T, S104V

Relative Biological Activity (AML 193 proliferation) (hIL-3 receptor [1]): 0.1 EC50 (1-133)hIL-3 / EC50 mutant
B6: pMON13451 polypeptide (ligand)
chain: MANCSIILDEAIHHLKIPPNPSLDSANLNSEDVSILMERNLRTPNLLAFVRAVKHLENASGIEPILRNLQPCLPSATAAPSRTPIIIKAGDWQEFREKLTFYLVTLEQAQEQQ

Relative Biological Activity (AML 193 proliferation) (hIL-3 receptor [1]): > 0.0003 EC50 (1-133)hIL-3 / EC50 mutant
B10: pMON13426 polypeptide (ligand)
chain: MANCSIAIDEIIHHLKRPPNPLLDPNNLNSEDVDILDERNLRTPNLLAFVRAVKHLENASGIEAILRNLQPCLPSATAAPSRHPIIIKAGDWQEFREKLTFYLVTLEQAQEQQ

Relative Biological Activity (AML 193 proliferation) (hIL-3 receptor [1]): 3 EC50 (1-133)hIL-3 / EC50 mutant
B11: pMON13424 polypeptide (ligand)
chain: B10 chain with D37L

Relative Biological Activity (AML 193 proliferation) (hIL-3 receptor [1]): > 0.0002 EC50 (1-133)hIL-3 / EC50 mutant
B12: pMON13429 polypeptide (ligand)
chain: B10 chain with A7I

Relative Biological Activity (AML 193 proliferation) (hIL-3 receptor [1]): 0.16 EC50 (1-133)hIL-3 / EC50 mutant
B13: pMON13467 polypeptide (ligand)
chain: B6 chain with I7M, L8I, A11L, P64A, T83H, E97L, T100Q, V104S, T105S

Relative Biological Activity (AML 193 proliferation) (hIL-3 receptor [1]): 0.008 EC50 (1-133)hIL-3 / EC50 mutant
B15: pMON13428 polypeptide (ligand)
chain: B4 chain with L11I, I17R, S22L, S25P, A26N, V33M, S34D

Relative Biological Activity (AML 193 proliferation) (hIL-3 receptor [1]): 0.4 EC50 (1-133)hIL-3 / EC50 mutant
B19: pMON13423 polypeptide (ligand)
chain: B10 chain with A7I, D37I

Relative Biological Activity (AML 193 proliferation) (hIL-3 receptor [1]): 6 EC50 (1-133)hIL-3 / EC50 mutant
B20: pMON13425 polypeptide (ligand)
chain: B10 chain with A7I, D37L

Continued, binder first:

B2: pMON13390 polypeptide (ligand)
chain: B1 chain with A32N, A42S, V45M, L55T, E59L, S60A, N67H
Relative Biological Activity (AML 193 proliferation) (hIL-3 receptor [1]): 20 EC50 (1-133)hIL-3 / EC50 mutant

B3: pMON13418 polypeptide (ligand)
chain: B4 chain with L11I, I17R, S22L, S25P, A26N, V33M, S34D, L97E, Q100T, S104V
Relative Biological Activity (AML 193 proliferation) (hIL-3 receptor [1]): 0.5 EC50 (1-133)hIL-3 / EC50 mutant

B7: pMON13412 polypeptide (ligand)
chain: MANCSIMIDEIIHHLKRPPNPLLDPNNLNSEDMDILMERNLRTPNLLAFVRAVKHLENASGIEAILRNLQPCLPSATAAPSRHPIIIKAGDWQEFRLKLQFYLSTL
Relative Biological Activity (AML 193 proliferation) (hIL-3 receptor [1]): 0.5 EC50 (1-133)hIL-3 / EC50 mutant

B8: native human interleukin-3, (1-133)hIL-3 (ligand)
chain: MAPMTQTTSLKTSWVNCSNMIDEIITHLKQPPLPLLDFNNLNGEDQDILMENNLRRPNLEAFNRAVKSLQNASAIESILKNLLPCLPLATAAPTRHPIHIKDGDWNEFRRKLTFYLKTLENAQAQQTTLSLAIF
EC50, AML 193 cell proliferation assay (hIL-3 receptor [2]): 0.0302 nM | Relative Biological Activity (AML 193 proliferation) (hIL-3 receptor [1]): 1 EC50 (1-133)hIL-3 / EC50 mutant

B9: pMON13413 polypeptide (ligand)
chain: B10 chain with A7M, V33M, D37M, E97L, T100Q, V104S, T105S
Relative Biological Activity (AML 193 proliferation) (hIL-3 receptor [1]): 0.6 EC50 (1-133)hIL-3 / EC50 mutant

B14: pMON13419 polypeptide (ligand)
chain: MANCSIMIDEIIHHLKRPPNPLLDPNNLNSEDMDILMDSNLLTPNLLAFPHASKQLENASGIEAILRNLQPCLPSATAAPSRHPIIIKAGDWQEFRLKLQFYLSSLEQAQEQQ
Relative Biological Activity (AML 193 proliferation) (hIL-3 receptor [1]): 0.015 EC50 (1-133)hIL-3 / EC50 mutant

B16: pMON13414 polypeptide (ligand)
chain: B10 chain with A7I, V33M, D37M
Relative Biological Activity (AML 193 proliferation) (hIL-3 receptor [1]): 4 EC50 (1-133)hIL-3 / EC50 mutant

B17: pMON13415 polypeptide (ligand)
chain: B10 chain with A7I, D37M
Relative Biological Activity (AML 193 proliferation) (hIL-3 receptor [1]): 4 EC50 (1-133)hIL-3 / EC50 mutant

B18: pMON13422 polypeptide (ligand)
chain: B10 chain with D37I
Relative Biological Activity (AML 193 proliferation) (hIL-3 receptor [1]): 0.4 EC50 (1-133)hIL-3 / EC50 mutant
